Test results as given in article PMC2568912 (The Journal of Biological Chemistry, 2008).

Biological target: the molecule itself
Experiment: non-reducing SDS-PAGE with immunoblot

B1: N-terminal HA-tagged PKD2 mutant L703X (domain or fragment, human, UniProt Q13563 1-702, looked up)
chain: MVNSSRVQPQQPGDAKRPPAPRAPDPGRLMAGCAAVGASLAAPGGLCEQRGLEIEMQRIRQAAARDPPAGAAASPSPPLSSCSRQAWSRDNPGFEAEEEEEEVEGEEGGMVVEMDVEWRPGSRRSAASSAVSSVGARSRGLGGYHGAGHPSGRRRRREDQGPPCPSPVGGGDPLHRHLPLEGQPPRVAWAERLVRGLRGLWGTRLMEESSTNREKYLKSVLRELVTYLLFLIVLCILTYGMMSSNVYYYTRMMSQLFLDTPVSKTEKTNFKTLSSMEDFWKFTEGSLLDGLYWKMQPSNQTEADNRSFIFYENLLLGVPRIRQLRVRNGSCSIPQDLRDEIKECYDVYSVSSEDRAPFGPRNGTAWIYTSEKDLNGSSHWGIIATYSGAGYYLDLSRTREETAAQVASLKKNVWLDRGTRATFIDFSVYNANINLFCVVRLLVEFPATGGVIPSWQFQPLKLIRYVTTFDFFLAACEIIFCFFIFYYVVEEILEIRIHKLHYFRSFWNCLDVVIVVLSVVAIGINIYRTSNVEVLLQFLEDQNTFPNFEHLAYWQIQFNNIAAVTVFFVWIKLFKFINFNRTMSQLSTTMSRCAKDLFGFAIMFFIIFLAYAQLAYLVFGTQVDDFSTFQECIFTQFRIILGDINFAEIEEANRVLGPIYFTTFVFFMFFILLNMFLAIINDTYSEVKSDLAQQKAEMELSD
  stoichiometry N: 2
